Several values for one entry are separate records, joined by “and”; a condition that tells them apart may be missing. Identical values can stand only once.
Target: F-type ATP synthase from bovine heart mitochondria (Bos taurus (bovine))
Experiment: native gel or EMSA

In the case of “F-type ATP synthase from bovine heart mitochondria (complex)”, the stoichiometry N is reported as 2 and 4.

Source: article doi:10.1101/2022.09.21.508839
